In article PMC11952830:

Molecular target: actin (rabbit muscle), P68135
Test: fluorescence anisotropy
Details: chain shown with the change, actin filaments titrated 0-12 µM

Binder | Kd (20 nM TMR-labeled KLP-AAA Cdc42EP3 (TMR at C211) held fixed) [µM] | Kd (20 nM TMR-labeled IS-AA Cdc42EP3 (TMR at C211) held fixed) [µM]
Cdc42EP3 labeled with tetramethylrhodamine (TMR) at C211, Q9UKI2 KLP->AAA (protein) MPAKTPIYLKAANNKKGKKFKLRDILSPDMISPPLGDFRHTIHIGKEGQHDVFGDISFLQGNYELLPGNQEKAHLGQFPGHNEFFRANSTSDSVFTETPSPVLKNAISLPTIGGSQALMLPLLSPVTFNSKQESFGPAAAARLSAEPVMEEKAQEKSSLLENGTVHQGDTSWGSSGSASQSSQGRDSHSSSLSEQYPDWPAEDMFDHPTPCELIKGKTKSEESLSDLTGSLLSLQLDLGPSLLDEVLNVMDKNK | 3.4 | 
Cdc42EP3 labeled with tetramethylrhodamine (TMR) at C211, Q9UKI2 IS->AA (protein) MPAKTPIYLKAANNKKGKKFKLRDILSPDMAAPPLGDFRHTIHIGKEGQHDVFGDISFLQGNYELLPGNQEKAHLGQFPGHNEFFRANSTSDSVFTETPSPVLKNAISLPTIGGSQALMLPLLSPVTFNSKQESFGPAKLPRLSAEPVMEEKAQEKSSLLENGTVHQGDTSWGSSGSASQSSQGRDSHSSSLSEQYPDWPAEDMFDHPTPCELIKGKTKSEESLSDLTGSLLSLQLDLGPSLLDEVLNVMDKNK |  | 2.8
